# Source: article PMC10567788, “Asymmetric gating of a human hetero-pentameric glycine receptor” (Nature Communications, 2023)
# Tests used:
# [1] = target: human glycine receptor β subunit, cryo-EM construct βem (human); assay: cryo-EM structure; α1emβem GlyR co-expressed and co-purified through the PA tag on βem; single-particle cryo-EM in 0.06% digitonin, 20 mM Tris pH 8.0, 200 mM NaCl; apo and with 2 mM glycine (states apo, gly-1 open, gly-2 expanded open, gly-3 desensitized)
# [2] = target: the molecule itself; assay: as above
# human glycine receptor β subunit, cryo-EM construct βem (human), sequence (P48167 whole entry): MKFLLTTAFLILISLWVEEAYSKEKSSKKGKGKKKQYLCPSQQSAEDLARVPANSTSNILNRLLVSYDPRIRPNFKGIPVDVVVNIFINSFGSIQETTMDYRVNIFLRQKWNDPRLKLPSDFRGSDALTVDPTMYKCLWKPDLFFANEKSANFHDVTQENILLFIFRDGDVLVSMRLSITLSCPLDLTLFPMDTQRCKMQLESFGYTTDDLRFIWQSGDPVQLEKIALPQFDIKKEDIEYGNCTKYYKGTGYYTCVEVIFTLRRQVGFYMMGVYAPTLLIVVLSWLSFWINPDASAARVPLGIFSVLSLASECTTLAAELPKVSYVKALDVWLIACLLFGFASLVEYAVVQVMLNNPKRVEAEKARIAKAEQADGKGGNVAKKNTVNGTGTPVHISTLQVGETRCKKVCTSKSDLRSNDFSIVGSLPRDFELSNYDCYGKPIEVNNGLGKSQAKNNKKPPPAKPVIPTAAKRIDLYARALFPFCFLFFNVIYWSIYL
binder,measurement,setting,value
"human glycine receptor α1 subunit, cryo-EM construct α1em (receptor, human glycine receptor α1, NCBI NP_001139512.1, the part before the M3/M4 loop (residues up to L315); linker that replaces the M3/M4 loop residues R316-P381; human glycine receptor α1, NCBI NP_001139512.1, the part after the replaced M3/M4 loop (E382 to the C-terminal Q429); Four copies stand in each α1emβem pentamer; also called GlyR α1; α subunit; source: HEK293S GnTI- cells, BacMam baculovirus …) ARSAPKPMSPSDFLDKLMGRTSGYDARIRPNFKGPPVNVSCNIFINSFGSIAETTMDYRVNIFLRQQWNDPRLAYNEYPDDSLDLDPSMLDSIWKPDLFFANEKGAHFHEITTDNKLLRISRNGNVLYSIRITLTLACPMDLKNFPMDVQTCIMQLESFGYTMNDLIFEWQEQGAVQVADGLTLPQFILKEEKDLRYCTKHYNTGKFTCIEARFHLERQMGYYLIQMYIPSLLIVILSWISFWINMDAAPARVGLGITTVLTMTTQSSGSRASLPKVSYVKAIDIWMAVCLLFVFSALLEYAAVNFVSRQHKELLGSSGEEMRKLFIQRAKKIDKISRIGFPMAFLIFNMFYWIIYKIVRREDVHNQ",stoichiometry N (α1 subunits per β subunit),[1],4
same,binding result,[2],binds
